What is called EC50 (read off the curve) is the concentration at which the effect is half-maximal. A low value points to an effect from little substance.

Test [1] concerns the target HCV E1E2 glycoproteins, genotype 2a (J6) (Hepatitis C virus genotype 2a (J6)). The test can be described thus: cell-based or functional assay.
In test [2] the target is HCV E1E2 glycoproteins, genotype 1b (Con1) (Hepatitis C virus genotype 1b (Con1)) (UniProt Q9WMX2). The test is described as follows: cell-based or functional assay.
Test [3] has as its target Peptide D3. The settings on record: remark: other sources report otherwise.

HCV E1E2 glycoproteins, genotype 1b (Con1) (Hepatitis C virus genotype 1b (Con1)), sequence (Q9WMX2 192-383 limits assumed, chain 1 of 2): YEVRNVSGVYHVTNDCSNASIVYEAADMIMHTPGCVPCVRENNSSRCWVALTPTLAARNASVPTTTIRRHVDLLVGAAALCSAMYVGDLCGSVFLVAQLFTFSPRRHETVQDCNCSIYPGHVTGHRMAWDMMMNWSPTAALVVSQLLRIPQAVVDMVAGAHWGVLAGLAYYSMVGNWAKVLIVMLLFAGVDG
HCV E1E2 glycoproteins, genotype 1b (Con1) (Hepatitis C virus genotype 1b (Con1)), sequence (Q9WMX2 384-746 limits assumed, chain 2 of 2): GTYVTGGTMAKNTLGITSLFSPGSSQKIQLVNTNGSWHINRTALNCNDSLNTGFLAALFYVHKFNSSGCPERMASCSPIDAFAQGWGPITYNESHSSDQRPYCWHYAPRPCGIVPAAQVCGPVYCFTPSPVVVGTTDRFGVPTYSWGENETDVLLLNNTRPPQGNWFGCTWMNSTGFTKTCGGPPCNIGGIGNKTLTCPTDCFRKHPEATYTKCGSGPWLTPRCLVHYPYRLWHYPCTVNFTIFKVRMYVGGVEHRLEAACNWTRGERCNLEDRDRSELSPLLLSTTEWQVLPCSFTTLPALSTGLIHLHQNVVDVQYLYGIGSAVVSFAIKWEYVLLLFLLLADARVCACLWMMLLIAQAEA

B1: AP33 antibody (as used in Example 2) (antibody, V domains shown)
VH: EVQLQESGPSLVKPSQTLSLTCSVTGDSITSGYWNWIRKFPGNKLEYMGYISYSGSTYYNLSLRSRISITRDTSKNQYYLQLNSVTTEDTATYYCALITTTTYAMDYWGQGTSVTVS
VL: NIVLTQSPVSLAVSLGQRATISCRASESVDGYGNSFLHWFQQKPGQPPKLLIYLASNLNSGVPARFSGSGSRTDFTLTIDPVEADDAATYYCQQNNVDPWTFGGGTKLEIK
The molecule B1 registered an EC50, neutralization of J6 HCVpp entry (Huh-7.5, luciferase) in test [1] of 2.07 µg/mL. This molecule came in with an EC50, neutralization of Con1 HCVpp entry (Huh-7.5, luciferase) in test [2] of 1.42 µg/mL.

B2: chimeric AP33 antibody (Vh/Vl) (antibody, V domains shown)
VH: EVQLQESGPSLVKPSQTLSLTCSVTGDSITSGYWNWIRKFPGNKLEYMGYISYSGSTYYNLSLRSRISITRDTSKNQYYLQLNSVTTEDTATYYCALITTTTYAMDYWGQGTSVTVS
VL: NIVLTQSPVSLAVSLGQRATISCRASESVDGYGNSFLHWFQQKPGQPPKLLIYLASNLNSGVPARFSGSGSRTDFTLTIDPVEADDAATYYCQQNNVDPWTFGGGTKLEIK
The molecule B2 came in with an EC50 (read off the curve) in test [3] of 0.02 µg/mL.

Values taken from patent US20120027722A1.
